B1: Protein kinase C-like 3 (Caenorhabditis elegans), Q19266 (parent)
chain: MSSPTSLEEDGDIKLKTRFQGQVVVLYARPPLILDDFFALLKDACKQHKKQDITVKWIDEDGDPISIDSQMELDEAVRCLNSSQEAELNIHVFVGKPELPGLPCQGEDKTVYRRGARRWKKIYLYNGHRFQAKRLNRRIQCFICHDYIWGIGRQGFRCVDCRLCVHKKCHRHVRTHCGQALQGPNIIPMAPASGSLKGARSNTSSSTTRSGGGIDNGAFHEHEIESPGSTSHDASRAMNGNGSSKWAVSLNDFRLLTVIGRGSYAKVVQAEHVSTRQIYAIKIIKKEMFNEDEDIDWVQTEKSVFEAASNYPFLVGLHSCFQTESRLFFVIEFVPGGDLMFHMQQQRKLPEEHARFYSGEIILALHFLHSRGIIYRDLKLDNVLIDAEGHIKLTDYGMCKENIKDGDLTSTFCGTPNYIAPEILRGDEYGFSVDWWALGVLMFEMMAGRSPFDIVGMQNSEENTEDYLFQIILERQIRIPRSLSVRASGILKGFLNKDPTERLGCKLDINEGLRDMKEHQFFRGFIDWEALEQKAVAPPYHPAVESDRDLTHFDHQFTDELPQLSPDNPDVIARIDQSEFDGFEYVNPLQMSREDSV
partner: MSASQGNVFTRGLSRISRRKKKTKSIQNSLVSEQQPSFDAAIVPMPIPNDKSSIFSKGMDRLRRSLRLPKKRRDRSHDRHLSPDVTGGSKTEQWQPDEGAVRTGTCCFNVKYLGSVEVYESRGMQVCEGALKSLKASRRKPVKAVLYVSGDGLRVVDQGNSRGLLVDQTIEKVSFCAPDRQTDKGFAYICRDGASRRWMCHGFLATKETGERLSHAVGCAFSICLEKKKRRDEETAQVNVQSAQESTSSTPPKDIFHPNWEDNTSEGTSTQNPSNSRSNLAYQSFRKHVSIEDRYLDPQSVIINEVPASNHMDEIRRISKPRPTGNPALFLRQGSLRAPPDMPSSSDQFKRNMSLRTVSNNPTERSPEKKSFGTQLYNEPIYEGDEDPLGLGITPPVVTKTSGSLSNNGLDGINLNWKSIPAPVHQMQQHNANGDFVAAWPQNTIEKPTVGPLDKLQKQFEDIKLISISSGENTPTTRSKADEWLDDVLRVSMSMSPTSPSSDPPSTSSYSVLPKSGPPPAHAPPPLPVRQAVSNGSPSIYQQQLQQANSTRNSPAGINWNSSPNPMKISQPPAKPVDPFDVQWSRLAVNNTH

Variants of: B1
Conditions: with num-1, Q9XTY6-1

Effect of a mutation on the interaction, decreasing interaction:
N216A
F219A
I214A
